Test results taken from patent publication US20220298237A1 (KEIO UNIVERSITY, published 2022).

Legend:
[1] = target: T1, oligopeptide ATYPSGHLDM (SEQ ID NO: 1) (human and mouse); assay: ELISA on the immunogen peptide (FIG. 2)
T1 construct: Synthetic peptide; positions 148 to 157 of the human AQP3 polypeptide, identical in mouse; also called peptide used for immunization; oligopeptide 5
T1 peptide: ATYPSGHLDM

[2] = target: T2, mouse aquaporin 3 (AQP3) on cells (mouse, UniProt Q8R2N1 1-292); assay: fluorescence binding assay on PAM212 cells, 10 µg/mL (FIG. 5B)
T2 construct: whole, on cells; Water channel membrane protein; also called mouse AQP3; AQP3 on PAM212 cells
T2 sequence (looked up): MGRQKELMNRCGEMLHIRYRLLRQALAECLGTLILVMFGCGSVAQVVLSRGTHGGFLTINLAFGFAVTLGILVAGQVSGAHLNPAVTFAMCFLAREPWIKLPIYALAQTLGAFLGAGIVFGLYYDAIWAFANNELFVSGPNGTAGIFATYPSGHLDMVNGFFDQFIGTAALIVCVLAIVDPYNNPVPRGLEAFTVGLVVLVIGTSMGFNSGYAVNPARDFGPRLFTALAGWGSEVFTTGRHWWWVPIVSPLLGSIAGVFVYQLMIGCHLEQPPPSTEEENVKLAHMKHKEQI
Procedure: PAM212 and macrophage cells were reacted with each anti AQP3 antibody (0.1, 1, or 10 μg/mL) at 4° C. for 1 hour. After washing the cells, a fluorescent-labeled secondary antibody was added and the reaction was allowed to occur additionally for 1 hour (4° C.). By measuring the fluorescence intensity, the binding property of each anti AQP3 antibody to cells was obtained.
The assay was also performed using PAM212 cells and antibodies A, B, C, D, E, F, G, H, and J at a concentration of 10 μg/mL. Binding of antibodies C, D, E, G, and J to PAM212 cells was statistically significant.

[3] = target: T3, mouse AQP3 in lysate of HEK293T cells overexpressing mouse AQP3 and a myc-biotinylated tag (mouse, UniProt Q8R2N1 1-292); assay: ELISA on lysate of HEK293T cells overexpressing mouse AQP3 (FIG. 3)
T3 construct: Cell lysate used in ELISA; also called AQP3 containing cell lysate; not shown: myc-biotinylated tag
T3 sequence (looked up): T2 sequence (looked up)
Excerpt: Cell lysate from HEK293T cells overexpressing mouse AQP3 and a myc-biotinylated tag was used in an ELISA assay to measure the binding of antibodies A, B, C, D, E, F, G, H, J, and K to AQP3. Cell lysate from HEK293T cells overexpressing the myc-biotinylated tag but not AQP3 was used as control. […] C. Antibody binding to AQP3 expressing cells

[4] = target: T4, human aquaporin 3 (AQP3) on cells (human, UniProt Q92482 1-292); assay: fluorescence binding assay on HaCaT cells, 10 µg/mL (FIG. 5C)
T4 construct: whole, on cells; Water channel membrane protein; also called human AQP3; AQP3 on HaCaT cells
T4 sequence (looked up): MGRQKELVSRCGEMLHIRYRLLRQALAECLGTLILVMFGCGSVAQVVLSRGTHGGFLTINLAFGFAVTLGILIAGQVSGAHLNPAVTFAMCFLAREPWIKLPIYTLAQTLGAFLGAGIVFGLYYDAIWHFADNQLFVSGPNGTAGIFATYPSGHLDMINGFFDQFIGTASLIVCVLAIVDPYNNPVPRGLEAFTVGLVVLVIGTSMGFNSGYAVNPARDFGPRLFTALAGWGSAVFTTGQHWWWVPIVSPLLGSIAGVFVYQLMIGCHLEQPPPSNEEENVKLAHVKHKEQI

[5] = target: T5, oligopeptide ATYPSGH (SEQ ID NO: 103); assay: ELISA on coated peptide
T5 construct: Synthetic peptide, part of Loop C of AQP3
T5 peptide: ATYPSGH
Procedure: (§1) To determine the important amino acid residues of an epitope in Loop C involved in binding to specific AQP3 antibody clones, peptides of varying lengths were produced. The sequences of these peptides are shown in column 2 of Table 4.
(§2) The various peptides and AQP3 antibody clones were subjected to ELISA binding analyses. […] The microtiter wells (Costar 2690) were coated with 50 μL of each peptide at 4° C. overnight. The wells were washed 3 times with PBS and blocked with 100 μL of 1% BSA/PBS at 37° C. for 1 hour. Each antibody was adjusted to 1 μg/mL in 1% SBA/PBS as above then serially diluted 1:5 in 1% BSA/PBS. The blocker was discarded and the wells were incubated with 50 μL of antibodies at 37° C. for 1.5 hours. The wells were washed 3 times with PBS and mouse antibodies were detected with 50 μL of goat anti-mouse IgG (H+L) HRP conjugate (ThermoFisher 31438) (1:5,000 in 1% BSA/PBS) and rabbit antibodies were detected with 50 μL of goat anti-rabbit IgG (H+L) HRP conjugate (ThermoFisher 31462) (1:5,000 in 1% BSA/PBS) at 37° C. for 1 hour. The wells were washed 3 times with PBS and developed with 50 μL of HRP substrate at RT for 5 min then stopped with 50 μL of 2N sulfuric acid and binding was measured with a plate reader.

[6] = target: T6, oligopeptide SGPNGTAGIFATYPS (SEQ ID NO: 94); assay: ELISA on coated peptide
T6 construct: Synthetic peptide, part of Loop C of AQP3
T6 peptide: SGPNGTAGIFATYPS
Procedure: as §1, §2

[7] = target: T7, oligopeptide AGIFATYPSGHLDM (SEQ ID NO: 106); assay: ELISA on coated peptide
T7 construct: Synthetic peptide, part of Loop C of AQP3
T7 peptide: AGIFATYPSGHLDM
Procedure: as §1, §2

[8] = target: T8, oligopeptide IFATYPSGHLDM (SEQ ID NO: 108); assay: ELISA on coated peptide
T8 construct: Synthetic peptide, part of Loop C of AQP3
T8 peptide: IFATYPSGHLDM
Procedure: as §1, §2

[9] = target: T9, oligopeptide PSGHLDM (SEQ ID NO: 98); assay: ELISA on coated peptide
T9 construct: Synthetic peptide, part of Loop C of AQP3
T9 peptide: PSGHLDM
Procedure: as §1, §2

[10] = target: T10, oligopeptide FATYPSGHLDM (SEQ ID NO: 109); assay: ELISA on coated peptide
T10 construct: Synthetic peptide, part of Loop C of AQP3
T10 peptide: FATYPSGHLDM
Procedure: as §1, §2

[11] = target: T11, oligopeptide GIFATYPSGHLDM (SEQ ID NO: 107); assay: ELISA on coated peptide
T11 construct: Synthetic peptide, part of Loop C of AQP3
T11 peptide: GIFATYPSGHLDM
Procedure: as §1, §2

[12] = target: T12, oligopeptide ATYPSG (SEQ ID NO: 104); assay: ELISA on coated peptide
T12 construct: Synthetic peptide, part of Loop C of AQP3
T12 peptide: ATYPSG
Procedure: as §1, §2

[13] = target: T13, oligopeptide TYPSGHLDM (SEQ ID NO: 96); assay: ELISA on coated peptide
T13 construct: Synthetic peptide, part of Loop C of AQP3
T13 peptide: TYPSGHLDM
Procedure: as §1, §2

[14] = target: T14, oligopeptide YPSGHLDM (SEQ ID NO: 97); assay: ELISA on coated peptide
T14 construct: Synthetic peptide, part of Loop C of AQP3; first diluted in DMSO
T14 peptide: YPSGHLDM
Procedure: as §1, §2

[15] = target: T15, oligopeptide SGHLDM (SEQ ID NO: 99); assay: ELISA on coated peptide
T15 construct: Synthetic peptide, part of Loop C of AQP3
T15 peptide: SGHLDM
Procedure: as §1, §2

[16] = target: T1, oligopeptide ATYPSGHLDM (SEQ ID NO: 1); assay: ELISA on coated peptide
Procedure: as §1, §2

[17] = target: T16, oligopeptide ATYPSGHL (SEQ ID NO: 102); assay: ELISA on coated peptide
T16 construct: Synthetic peptide, part of Loop C of AQP3
T16 peptide: ATYPSGHL
Procedure: as §1, §2

[18] = target: T17, oligopeptide GHLDM (SEQ ID NO: 100); assay: ELISA on coated peptide
T17 construct: Synthetic peptide, part of Loop C of AQP3
T17 peptide: GHLDM
Procedure: as §1, §2

[19] = target: T18, oligopeptide ATYPSGHLD (SEQ ID NO: 101); assay: ELISA on coated peptide
T18 construct: Synthetic peptide, part of Loop C of AQP3
T18 peptide: ATYPSGHLD
Procedure: as §1, §2

[20] = target: T19, oligopeptide TAGIFATYPSGHLDM (SEQ ID NO: 105); assay: ELISA on coated peptide
T19 construct: Synthetic peptide, part of Loop C of AQP3
T19 peptide: TAGIFATYPSGHLDM
Procedure: as §1, §2

[21] = target: T1, oligopeptide ATYPSGHLDM (SEQ ID NO: 1); assay: ELISA on peptide SEQ ID NO:1, IgG, 50% binding response (FIG. 16A)

B1: Antibody E (antibody, mouse IgG2a, kappa, V domains shown)
VH: EVKLLESGAELVRPGASVTLSCKASGYTFTDYEMHWVKQTPVHGLEWIGGIDPESGGTGYNQKFKGKAILTADKSSSTAYMELRSLTSEDSAVYFCTRSGYYGSPLLDYWGQGTTLTVSS
VL: QIVLSQSPAIMSASLGERVTMTCTASSSVSSSYLHWYQQKPGSSPKLWIYSTSNLASGVPARFSGSGSGTSYSLTISSMEAEDAATYYCHQYHRSPPTFGAGTKLEIKR
notes: also called anti AQP3 antibody E; Antiboy E
binding result [1]: binds | binding result [2]: binds | binding result [3]: binds | binding result [4]: binds

B2: Antibody C (antibody, mouse IgG2a, kappa, V domains shown)
VH: QVQLKQSGAELARPGASVKLSCKASGYNFKSYGISWVKQRTGQGLEWIGEIYPGSGNTYYNEKLKGKATLTADKSSSTAYMELRSLTSEDSAVYFCARTYGYDSFPWFAYWGQGTLVTVSS
VL: DIVMTQAAPSVPVTPGESVSISCRSSKSLLHSNGNTYLYWFLQRPGQSPQLLIYRVSNLASGVPDRFSGSGSGTAFTLRISRVEAEDEGVYYCMQHLEYPFTFGAGTKLEIKR
notes: also called anti AQP3 antibody C
binding signal (plate reader) [5]: 0.047 | binding signal (plate reader) [6]: 0.045 | binding signal (plate reader) [7]: 2.97 | binding signal (plate reader) [8]: 2.8 | binding signal (plate reader) [9]: 0.271 | binding signal (plate reader) [10]: 2.8 | binding signal (plate reader) [11]: 2.92 | binding signal (plate reader) [12]: 0.044 | binding signal (plate reader) [13]: 1.79 | binding signal (plate reader) [14]: 1.58 | binding signal (plate reader) [15]: 0.048 | binding signal (plate reader) [16]: 2.21 | binding signal (plate reader) [17]: 1.69 | binding signal (plate reader) [18]: 0.043 | binding signal (plate reader) [19]: 2.52 | binding signal (plate reader) [20]: 2.81 | binding result [2]: binds | binding result [3]: binds | binding result [4]: binds | EC50 [21]: ~0.1 µg/mL
